Measured values from patent publication US20240392020A1 (JIANGSU HENGRUI PHARMACEUTICALS, published 2024).
Where a chain is given by its changes, count along the chain named.

T1: CEA on MKN45 cells (UniProt P06731 35-685)
T1 construct: whole, on cells
T1 sequence (looked up): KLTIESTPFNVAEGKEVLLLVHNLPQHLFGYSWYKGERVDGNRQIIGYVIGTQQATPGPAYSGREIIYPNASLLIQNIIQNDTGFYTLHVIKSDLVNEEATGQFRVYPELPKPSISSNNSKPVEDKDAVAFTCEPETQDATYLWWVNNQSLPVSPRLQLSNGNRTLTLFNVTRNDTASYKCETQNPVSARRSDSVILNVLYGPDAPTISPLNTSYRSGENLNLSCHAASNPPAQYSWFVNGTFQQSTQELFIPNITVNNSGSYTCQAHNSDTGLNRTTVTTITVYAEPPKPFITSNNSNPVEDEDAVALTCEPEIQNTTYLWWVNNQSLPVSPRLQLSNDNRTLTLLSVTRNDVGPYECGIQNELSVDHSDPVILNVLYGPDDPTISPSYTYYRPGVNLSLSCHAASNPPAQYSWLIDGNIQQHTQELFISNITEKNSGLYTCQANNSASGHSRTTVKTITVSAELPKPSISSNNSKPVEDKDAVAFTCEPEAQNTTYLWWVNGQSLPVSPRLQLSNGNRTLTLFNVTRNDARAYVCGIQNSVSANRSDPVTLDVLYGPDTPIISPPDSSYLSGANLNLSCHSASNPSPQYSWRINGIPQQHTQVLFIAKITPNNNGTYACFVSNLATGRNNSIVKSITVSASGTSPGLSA

T2: B7H3 on the recombinant cell line CT26-B7H3 (UniProt Q5ZPR3 29-534, limits assumed)
T2 construct: whole, on cells
T2 sequence (looked up): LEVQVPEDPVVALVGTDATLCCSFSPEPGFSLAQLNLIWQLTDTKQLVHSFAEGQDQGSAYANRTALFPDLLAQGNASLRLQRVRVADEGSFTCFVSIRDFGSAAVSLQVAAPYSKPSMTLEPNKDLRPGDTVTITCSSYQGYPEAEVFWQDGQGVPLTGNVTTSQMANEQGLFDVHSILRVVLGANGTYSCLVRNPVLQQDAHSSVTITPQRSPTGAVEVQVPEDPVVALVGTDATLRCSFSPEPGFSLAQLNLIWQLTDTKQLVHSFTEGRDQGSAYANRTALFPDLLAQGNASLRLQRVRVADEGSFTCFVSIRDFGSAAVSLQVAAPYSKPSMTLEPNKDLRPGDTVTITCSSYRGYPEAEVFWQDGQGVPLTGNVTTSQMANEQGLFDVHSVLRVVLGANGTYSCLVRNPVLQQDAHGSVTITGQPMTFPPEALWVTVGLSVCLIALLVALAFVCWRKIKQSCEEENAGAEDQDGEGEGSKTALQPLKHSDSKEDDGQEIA

B1: H5 (antibody)
heavy: not shown
light: DIQMTQSPSSVSASVGDRVTITCRASQDIANYLSWYQQKPGKSPKLLIYGTSNLEVGVPSRFSGSRSGTDFTLTISSLQPEDFATYYCLQDKEFPRTFGGGTKVEIKSGAPRFLTRPKAFVVSVGKDATLSCQIVGNPTPQVSWEKDQQPVAAGARFRLAQDGDLYRLTILDLALGDSGQYVCRARNAIGEAFACVGLQVDAEA
B2: H10 (antibody)
heavy: not shown
light: B1 light with R116C, C132S, C183S, C195A
B3: H6 (antibody)
heavy: not shown
light: B1 light with A110C, C195A
B4: H9 (antibody)
heavy: not shown
light: B1 light with A110C, C132S, C183S, C195A
B5: H7 (antibody)
heavy: not shown
light: B1 light with R116C, C195A
B6: H8 (antibody)
heavy: not shown
light: B1 light with C132S, C183S
B7: H11 (antibody)
heavy: not shown
light: DIQMTQSPSSVSASVGDRVTITCRASQDIANYLSWYQQKPGKSPKLLIYGTSNLEVGVPSRFSGSRSGTDFTLTISSLQPEDFATYYCLQDKEFPRTFGGGTKVEIKQGSPPEFLRFPRPVRVVSGAEAELKCVVLGEPPPVVVWEKGGQQLAASERLSFPADGAEHGLLLTAALPTDAGCYVCRARNAAGEAYAAAAVTVLEPP
B8: H14 (antibody)
heavy: not shown
light: B7 light with C133S, C184S
B9: H13 (antibody)
heavy: not shown
light: B7 light with C181V, A193C
B10: H15 (antibody)
heavy: not shown
light: B7 light with C133S, C181V, C184S, A193C
B11: H12 (antibody)
heavy: not shown
light: B7 light with C181V, G191C
B12: R7 (antibody)
heavy: not shown
light: DIQMTQSPSSLSASVGDRVTITCLASEGISSYLAWYQQKPGKAPKLLIYGANSLQTGVPSRFSGSGSATDYTLTISSLQPEDFATYYCQQSYKFPNTFGQGTKVEVKSGAPRFLTRPKAFVVSVGKDATLSCQIVGNPTPQVSWEKDQQPVAAGARFRLAQDGDLYRLTILDLALGDSGQYVCRARNAIGEAFACVGLQVDAEA
B13: R8 (antibody)
heavy: not shown
light: B12 light with A110C, C195A
B14: R11 (antibody)
heavy: not shown
light: B12 light with A110C, C132S, C183S, C195A
B15: R12 (antibody)
heavy: not shown
light: B12 light with R116C, C132S, C183S, C195A
B16: R9 (antibody)
heavy: not shown
light: B12 light with R116C, C195A
B17: N11 (antibody)
heavy: not shown
light: EIVLTQSPGTLSLSPGERATLSCRASQNINNRFLAWYQQRPGQAPRLLIYAASSRATGVPDRFSGSGSGTDFTLTISRLEAEDFAMYHCQQYGSFPRTFGQGTMVDIKSGAPRFKTRPKAFVVSVGKDATLSSQIVGNPTPQVSWEKDQQPVAAGARFRLAQDGDLYRLKILDLALGDSGQYVSRARNAIGEAFACVGLQVDAEA
B18: N12 (antibody)
heavy: not shown
light: B17 light with K170H
B19: F24 (antibody)
heavy: not shown
light: DTVVTQEPSFSVSPGGTVTLTCGLSSGSVSTSHYPSWYQQTPGQAPRMLIYNTNTRSSGVPDRFSGSILGNKAALTITGAQADDESDYYCAIHVDRDIWVFGGGTKLTVLDQPQFSGAPRFKTRPKAFVVSVGKDATLSSQIVGNPTPQVSWEKDQQPVAAGARFRLAQDGDLYRLKILDLALGDSGQYVSRARNAIGEAFACVGLQVDAEA
B20: F33 (antibody)
heavy: not shown
light: B19 light with D111G, Q112G, P113G, Q114G, F115S, K122L, K177T
B21: F25 (antibody)
heavy: not shown
light: B19 light
B22: F27 (antibody)
heavy: not shown
light: B19 light with K177H
B23: F31 (antibody)
heavy: not shown
light: B19 light with K122R, K177H
B24: F26 (antibody)
heavy: not shown
light: B19 light with K177H
B25: F30 (antibody)
heavy: not shown
light: B19 light with K122R, K177H
B26: F29 (antibody)
heavy: not shown
light: B19 light with K122R
B27: F28 (antibody)
heavy: not shown
light: B19 light with K122R
B28: F18 (antibody)
heavy: not shown
light: DTVVTQEPSFSVSPGGTVTLTCGLSSGSVSTSHYPSWYQQTPGQAPRMLIYNTNTRSSGVPDRFSGSILGNKAALTITGAQADDESDYYCAIHVDRDIWVFGGGTKLTVLSGAPRFKTRPKAFVVSVGKDATLSSQIVGNPTPQVSWEKDQQPVAAGARFRLAQDGDLYRLHILDLALGDSGQYVSRARNAIGEAFACVGLQVDAEA
B29: F16 (antibody)
heavy: not shown
light: B28 light with K117L, H172T
B30: F23 (antibody)
heavy: not shown
light: B28 light with K117L, K121L
B31: F19 (antibody)
heavy: not shown
light: B28 light
B32: F21 (antibody)
heavy: not shown
light: B28 light with K117L, K121L, H172K
B33: F22 (antibody)
heavy: not shown
light: B28 light with K117L, K121L
B34: F20 (antibody)
heavy: not shown
light: B28 light with K117L, K121L, H172K
B35: F17 (antibody)
heavy: not shown
light: B28 light with H172K
B36: F32 (antibody)
heavy: not shown
light: DTVVTQEPSFSVSPGGTVTLTCGLSSGSVSTSHYPSWYQQTPGQAPRMLIYNTNTRSSGVPDRFSGSILGNKAALTITGAQADDESDYYCAIHVDRDIWVFGGGTKLTVLGGGGSGGGGSSGAPRFLTRPKAFVVSVGKDATLSSQIVGNPTPQVSWEKDQQPVAAGARFRLAQDGDLYRLTILDLALGDSGQYVSRARNAIGEAFACVGLQVDAEA
B37: F34 (antibody)
heavy: not shown
light: B36 light

target: T3, hIL-5 (human, UniProt P05113 20-134); assay: ELISA
T3 construct: bought
Experimental: For an antibody targeting a soluble protein, the binding activity of the antibody against the soluble protein was detected by ELISA. […] After the blocking was completed, the blocking solution was discarded; and the plate was washed 3 times with a PBST buffer (pH 7.4, PBS containing 0.1% tween-20). 100 μL of the antibody solution diluted in a gradient was added to each well, and the mixture was incubated at 37° C. for 1 h. After the incubation was completed, the plate was washed 3 times with PBST. […] The plate was washed 3 times with PBST. […] The reaction was stopped by adding 50 μL of 1 M H₂SO₄ to each well. The absorbance values at 450 nm were read on a microplate reader, the binding curves of the antibodies to an antigen were fitted with software, and the EC₅₀ values were calculated.

Row | Binder | EC50
1 | B1 | 3.4 nM
2 | B2 | 2.86 nM
3 | B3 | 2.1 nM
4 | B4 | 2.92 nM
5 | B5 | 2.7 nM
6 | B6 | 2.11 nM
7 | B7 | 3.38 nM
8 | B8 | 2.61 nM
9 | B9 | 3.56 nM
10 | B10 | 4.26 nM
11 | B11 | 4.34 nM
12 | B12 | 4.89 nM
13 | B13 | 3.84 nM
14 | B14 | 3.3 nM
15 | B15 | 4.36 nM
16 | B16 | 3.95 nM

target: T1, CEA on MKN45 cells; assay: FACS, MKN45 cells

Row | Binder | EC50
17 | B17 | 5 nM
18 | B18 | 5.3 nM

target: T2, B7H3 on the recombinant cell line …; assay: FACS, CT26-B7H3 cells

Row | Binder | EC50
19 | B19 | 2.4 nM
20 | B20 | 1.92 nM
21 | B21 | 2.6 nM
22 | B22 | 1.2 nM
23 | B23 | 2.4 nM
24 | B24 | 2.6 nM
25 | B25 | 3.4 nM
26 | B26 | 3.6 nM
27 | B27 | 2.4 nM
28 | B28 | 3.9 nM
29 | B29 | 2 nM
30 | B30 | 4.1 nM
31 | B31 | 2.2 nM
32 | B32 | 3.4 nM
33 | B33 | 2.4 nM
34 | B34 | 1.9 nM
35 | B35 | 4.8 nM
36 | B36 | 3.69 nM
37 | B37 | 2.38 nM
